Results from PMC7826336.

Tests used:
prekallikrein (PK) = experiment: SPR; Pioneer biosensor, COOHV chip; PMSF-treated PK (FC-1) or PKa (FC-3) immobilised by amine coupling; analytes diluted to 250 nM, OneStep gradient injection, 30 uL/min, dissociation 600 s; 22 °C; 10 mM Hepes, 140 mM NaCl, 1.5 mM CaCl2, 40 uM ZnCl2 pH 7.4; simple ka/kd 1 or 2 binding site model
kallikrein (PKa) = kallikrein (PKa) (UniProt P03952); experiment: as above
Chain of kallikrein (PKa) (P03952 20-390, chain 1 of 2): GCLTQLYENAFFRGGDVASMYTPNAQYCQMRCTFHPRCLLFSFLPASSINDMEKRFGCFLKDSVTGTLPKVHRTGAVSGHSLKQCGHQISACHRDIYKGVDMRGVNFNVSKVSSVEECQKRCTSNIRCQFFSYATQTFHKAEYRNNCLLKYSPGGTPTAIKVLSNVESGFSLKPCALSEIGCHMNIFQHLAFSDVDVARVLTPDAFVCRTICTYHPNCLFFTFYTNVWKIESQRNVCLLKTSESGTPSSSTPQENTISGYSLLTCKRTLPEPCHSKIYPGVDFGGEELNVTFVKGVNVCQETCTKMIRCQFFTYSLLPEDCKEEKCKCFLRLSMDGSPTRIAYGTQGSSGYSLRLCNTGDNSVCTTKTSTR
Chain of kallikrein (PKa) (P03952 391-638, chain 2 of 2): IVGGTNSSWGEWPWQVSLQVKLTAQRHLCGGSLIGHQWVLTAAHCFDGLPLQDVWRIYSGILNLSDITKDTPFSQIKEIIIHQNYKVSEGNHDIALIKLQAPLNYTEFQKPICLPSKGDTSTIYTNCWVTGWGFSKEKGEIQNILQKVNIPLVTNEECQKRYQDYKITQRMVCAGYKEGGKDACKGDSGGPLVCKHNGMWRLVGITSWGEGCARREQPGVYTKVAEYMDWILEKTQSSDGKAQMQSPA

Substance: activated Factor IX (FIXa) (from UniProt P00740 47-191; P00740 227-461) (enzyme)
- Kd (prekallikrein (PK)): 0.492 nM
- koff (prekallikrein (PK)): 6.45e-05 s⁻¹
- kon (prekallikrein (PK)): 131000 M⁻¹ s⁻¹

Substance: Factor IX (FIX) (from UniProt P00740 47-461) (natural protein)
- Kd (prekallikrein (PK)): 2.17 nM
- koff (prekallikrein (PK)): 0.000239 s⁻¹
- kon (prekallikrein (PK)): 110000 M⁻¹ s⁻¹

Substance: high molecular weight kininogen (HK) (natural protein)
- Kd (kallikrein (PKa)): 0.272 nM
- koff (kallikrein (PKa)): 2.82e-05 s⁻¹
- kon (kallikrein (PKa)): 104000 M⁻¹ s⁻¹
- Kd (prekallikrein (PK)): 0.245 nM
- koff (prekallikrein (PK)): 3.73e-05 s⁻¹
- kon (prekallikrein (PK)): 152000 M⁻¹ s⁻¹
